Here are results for 1 protein from patent publication US20020122804.

In data set [1] the target is BSA (Fraction V, Sigma), P02769.
Data set [2] addresses N,N' dimethylcasein.
Data set [3] has as its target T1, hyphal wall protein 1 (Hwp1) on C. albicans germ tube surfaces, P46593.
T1 chain: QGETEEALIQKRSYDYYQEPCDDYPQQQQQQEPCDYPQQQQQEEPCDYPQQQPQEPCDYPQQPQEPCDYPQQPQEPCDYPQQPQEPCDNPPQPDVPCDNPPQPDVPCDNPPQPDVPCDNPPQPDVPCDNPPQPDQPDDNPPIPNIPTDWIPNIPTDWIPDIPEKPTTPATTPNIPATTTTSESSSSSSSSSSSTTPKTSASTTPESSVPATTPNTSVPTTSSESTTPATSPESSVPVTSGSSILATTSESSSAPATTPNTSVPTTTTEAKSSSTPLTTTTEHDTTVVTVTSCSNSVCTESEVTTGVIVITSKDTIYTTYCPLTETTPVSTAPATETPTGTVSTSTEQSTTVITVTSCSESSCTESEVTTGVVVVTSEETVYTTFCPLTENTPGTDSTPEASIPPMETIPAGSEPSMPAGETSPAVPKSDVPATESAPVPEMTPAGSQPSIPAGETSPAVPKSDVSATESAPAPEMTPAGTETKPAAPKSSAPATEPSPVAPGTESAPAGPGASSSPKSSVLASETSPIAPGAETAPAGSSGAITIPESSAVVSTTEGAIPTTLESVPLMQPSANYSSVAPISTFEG

For data set [4], the target named is rHwp1ΔC37, P46593.

Chain of BSA (Fraction V, Sigma), P02769 (P02769 25-607): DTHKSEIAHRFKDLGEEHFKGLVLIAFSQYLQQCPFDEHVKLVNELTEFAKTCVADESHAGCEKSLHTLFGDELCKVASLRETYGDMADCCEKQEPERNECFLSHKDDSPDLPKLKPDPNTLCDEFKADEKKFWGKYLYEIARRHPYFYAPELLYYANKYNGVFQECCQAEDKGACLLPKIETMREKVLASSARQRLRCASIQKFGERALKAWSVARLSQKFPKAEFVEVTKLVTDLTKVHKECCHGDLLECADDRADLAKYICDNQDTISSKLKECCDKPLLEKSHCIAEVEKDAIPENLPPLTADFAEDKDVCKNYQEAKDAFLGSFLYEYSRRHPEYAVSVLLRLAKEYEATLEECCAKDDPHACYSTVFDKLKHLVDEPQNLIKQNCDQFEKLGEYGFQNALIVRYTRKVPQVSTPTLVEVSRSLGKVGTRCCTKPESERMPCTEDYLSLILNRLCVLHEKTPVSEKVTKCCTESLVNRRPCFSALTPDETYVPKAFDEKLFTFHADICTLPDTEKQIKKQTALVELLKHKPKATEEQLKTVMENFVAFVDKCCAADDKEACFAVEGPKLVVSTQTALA

B1: guinea pig liver transglutaminase (protein)
chain: AEDLILERCDLQLEVNGRDHRTADLCRERLVLRRGQPFWLTLHFEGRGYEAGVDTLTFNAVTGPDPSEEAGTMARFSLSSAVEGGTWSASAVDQQDSTVSLLLSTPADAPIGLYRLSLEASTGYQGSSFVLGHFILLYNPRCPADAVYMDSDQERQEYVLTQQGFIYQGSAKFINGIPWNFGQFEDGILDICLMLLDTNPKFLKNAGQDCSRRSRPVYVGRVVSAMVNCNDDQGVLQGRWDNNYSDGVSPMSWIGSVDILRRWKDYGCQRVKYGQCWVFAAVACTVLRCLGIPTRVVTNFNSAHDQNSNLLIEYFRNESGEIEGNKSEMIWNFHCWVESWMTRPDLEPGYEGWQALDPTPQEKSEGTYCCGPVPVRAIKEGHLNVKYDAPFVFAEVNADVVNWIRQKDGSLRKSINHLVVGLKISTKSVGRDEREDITHTYKYPEGSEEEREAFVRANHLNKLATKEEAQEETGVAMRIRVGQNMTMGSDFDIFAYITNGTAESHECQLLLCARIVSYNGVLGPVCSTNDLLNLTLDPFSENSIPLHILYEKYGDYLTESNLIKVRGLLIEPAANSYVLAERDIYLENPEIKIRVLGEPKQNRKLIAEVSLKNPLPVPLLGCIFTVEGAGLTKDQKSVEVPDPVEAGEQAKVRVDLLPTEVGLHKLVVNFECDKLKAVKGYRNVIIGPA
Consider B1, for which the “[14C]-putrescine cross-linking detected by SDS-PAGE and fluorography” value in data set [1] was “no evidence of cross-linking of [^14C]-putrescine to transglutaminase itself or to BSA was seen”; in data set [4], “[^14C]-putrescine cross-linking to rHwp1?C37 detected by SDS-PAGE and fluorography required active transglutaminase”. The “transglutaminase-mediated incorporation of [14C]-putrescine (TCA-precipitable counts)” value in data set [1] is “BSA served as a negative control”; in data set [2], “Incorporation of [^14C]-putrescine by rHwp1?C37 was equivalent to that of casein, a known substrate of transglutaminases”; in data set [4], “Incorporation of [^14C]-putrescine by rHwp1?C37 was equivalent to that of casein, a known substrate of transglutaminases”. In addition, the “transglutaminase-mediated incorporation of a biotinylated lysine analogue into germ tubes (avidin-FITC fluorescence)” value in data set [3] is “Transglutaminase-mediated incorporation of a lysine analogue in the homozygous hwp1/hwp1 mutant strain CAH7-1A (FIG. 2E) was nearly absent as shown by the marked decrease in fluorescence compared to SC5314, CAI4, and CAH7”.
